Test [1] addresses 0N4 R tau K298 mutated to alanine (human) (UniProt P10636). Nature of the test: flow cytometry on fixed, permeabilised Expi293 cells expressing the mutant, 10 µg/ml VR7082.
The target in test [2] is 0N4 R tau V300 mutated to alanine (human) (UniProt P10636). Described as above.
Sequence of 0N4 R tau V300 mutated to alanine (human) (P10636 other isoform, or with tags, fused parts or gaps, change not shown): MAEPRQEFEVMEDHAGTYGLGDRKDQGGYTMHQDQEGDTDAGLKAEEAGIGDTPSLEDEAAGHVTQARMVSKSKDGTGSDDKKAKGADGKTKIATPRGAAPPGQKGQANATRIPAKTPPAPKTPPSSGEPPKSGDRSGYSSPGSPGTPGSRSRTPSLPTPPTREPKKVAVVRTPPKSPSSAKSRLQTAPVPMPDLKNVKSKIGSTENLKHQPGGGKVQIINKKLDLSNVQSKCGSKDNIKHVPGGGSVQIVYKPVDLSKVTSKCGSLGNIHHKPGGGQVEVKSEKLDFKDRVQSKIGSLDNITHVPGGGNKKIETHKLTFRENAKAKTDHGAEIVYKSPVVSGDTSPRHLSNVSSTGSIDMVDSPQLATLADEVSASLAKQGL

Sequence of 0N4 R tau K298 mutated to alanine (human) (P10636 other isoform, or with tags, fused parts or gaps, change not shown): as above

B1: VR7082 rabbit IgG (antibody, V domains shown)
VH: QSVEESGGRLVTPGTPLTLTCTVSGIDLSNYAMIWVRQAPGEGLEYIGIISSTGNTFYATWAKGRFTISKTSTTVDLKITSPTAEDTATYFCARDTNSDSHYGWEAFNIWGPGTLVTVSS
VL: AVVLTQTPASVEAAVGGTVSINCQASEDIESYLAWYQQKPGQRPKLLIYRASTLASGVSSRFKGSGSGTEYTLTISGVECADAATYYCQEGYSIHVDNVFGGGTEVVVK
Consider B1, for which the decrease of binding relative to 0N4 R tau in test [1] and in test [2] was 50% each time.

The values above are taken from patent publication US20240409624A1.
